“Also recorded” adds a separate entry of the source. No end group written: not given here.
Key:
tropoelastin = target: T1, tropoelastin (Mus musculus, UniProt P54320); test: In vivo imaging of plaques in HFD fed ApoE−/− mice with gadolinium labelled conjugates; conditions: gadolinium labelled conjugate
T1 construct: from tissue; host or cells: plaque-laden brachiocephalic artery and aortic arch of living HFD-fed ApoE-/- mice
T1 sequence (P54320 28-860): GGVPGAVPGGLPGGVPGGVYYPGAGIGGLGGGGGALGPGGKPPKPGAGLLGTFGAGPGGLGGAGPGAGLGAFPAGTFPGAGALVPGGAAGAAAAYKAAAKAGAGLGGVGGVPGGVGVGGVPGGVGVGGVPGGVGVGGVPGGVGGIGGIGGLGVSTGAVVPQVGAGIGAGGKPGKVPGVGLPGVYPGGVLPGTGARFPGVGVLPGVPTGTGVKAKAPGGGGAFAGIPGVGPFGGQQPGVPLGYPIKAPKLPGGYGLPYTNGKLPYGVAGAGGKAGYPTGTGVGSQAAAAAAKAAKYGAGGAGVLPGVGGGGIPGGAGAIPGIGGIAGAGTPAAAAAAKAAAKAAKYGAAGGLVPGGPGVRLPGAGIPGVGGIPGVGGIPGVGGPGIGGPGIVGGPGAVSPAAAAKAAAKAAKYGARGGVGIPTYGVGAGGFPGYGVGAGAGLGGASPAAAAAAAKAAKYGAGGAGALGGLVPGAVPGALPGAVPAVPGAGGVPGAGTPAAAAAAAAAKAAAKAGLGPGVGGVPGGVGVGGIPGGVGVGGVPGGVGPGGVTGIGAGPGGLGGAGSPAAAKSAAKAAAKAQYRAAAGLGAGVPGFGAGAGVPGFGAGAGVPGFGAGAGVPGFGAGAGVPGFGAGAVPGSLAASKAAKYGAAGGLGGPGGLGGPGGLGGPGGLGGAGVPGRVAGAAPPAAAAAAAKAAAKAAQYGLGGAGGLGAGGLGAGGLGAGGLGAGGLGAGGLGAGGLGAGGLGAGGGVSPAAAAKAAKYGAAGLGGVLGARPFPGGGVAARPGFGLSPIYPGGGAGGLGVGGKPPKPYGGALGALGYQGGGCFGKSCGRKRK
From the text: MRI will be performed in a mouse model of progressive atherosclerosis at 4, 8 and 12 weeks post commencement of a high fat diet and in a model of angiotensin-II (Ang-II) induced aortic aneurysm formation at 1, 2, 3 and 4 weeks post Ang-II releasing mini pump implantation. Ten mice will be scanned at each time point either receiving the tropoelastin or TNF-alpha binding contrast agent (CA) resulting in a total of […], respectively. Animals will undergo a pre and post contrast MRI session at each time point and subsequently will be sacrificed for validation with histology, immunostaining, electron and mass spectroscopy.

Substance	uptake in plaque-free carotid artery (tropoelastin)	uptake in plaque-laden brachiocephalic artery (BCA) and aortic arch (tropoelastin)	time of imaging post contrast injection (12 weeks HFD fed ApoE−/− mice) [h]	biodistribution (HFD fed ApoE−/− mice)	renal clearance (HFD fed ApoE−/− mice)
(DOTA-Gd)-VVGSPSAQDEASPLS (not fully specified (N-terminus); printed as (DOTA-Gd)-VVGSPSAQDEASPLS; also: Gd complexed by DOTA)	no uptake; also recorded: not in the plaque-free carotid artery	preferential uptake	≥ 1	favourable biodistribution	rapid renal clearance
K(DOTA-Gd)-YPDHVQYTHY (not fully specified (N-terminus); printed as K(DOTA-Gd)-YPDHVQYTHY; also: Gd complexed by DOTA on the N-terminal Lys) [K-(DOTA-Gd)-YPDHVQYTHY]	no uptake	preferential uptake			

Source: patent US20140065069A1, “Materials and Methods Relating to Cardiovascular Imaging” (KING'S COLLEGE LONDON, priority 2011, published 2014)
